Laboratory results taken from patent US7888089B2, “eNOS mutations useful for gene therapy and therapeutic screening” (Yale University, priority 1999, dated 2011).
Several values for one entry are separate records, joined by “and”; a condition that tells them apart may be missing. Equal values may be shown once. Read-outs that look alike come from different tables or passages of the source.

What was measured:
eNOS [1] = test: Conversion of L-arginine to L-citrulline by purified eNOS; assay type: biochemical, bovine; conditions: for Kcat (CaM, L-Citrulline): CaM activation of NOS activity
Protocol: The conversion of L-arginine to L-citrulline was assayed as described previously by Bredt et al. (1990). Briefly, eNOS (0.25-2 μg) was incubated for 3-10 min at 23° C. in the following reaction mixture: 3 pmol of L-[3H]arginine (55 Ci/mmol), 10-300 μM arginine, 1 mM NADPH, 120-200 nM calmodulin, 2 mM CaCl2, and 30 μM BH4 in a final reaction volume of 50-100 μl. The reaction was terminated by the addition of 0.5 ml of 20 mM HEPES, pH 5.5, containing 2 mM EGTA and EDTA. The reaction mixture was placed over Dowex AG50WX8, and the flow-through was counted on a Packard 1500 liquid scintillation analyzer.

cytochrome c = test: NADPH-cytochrome c reductase activity of purified eNOS; assay type: biochemical; conditions: for EC50: cytochrome c reduction; for Km: Km for NADPH
Protocol: Assays for Reductase Activity—NADPH-cytochrome c reductase activity and 2,6-dichlorophenolindophenol (DCIP) reduction were measured as a change in absorbance at 550 nm as described previously by Martasek et al. (1999) and Masters et al. (1967) using an extinction coefficient of 0.021 μM^−1 cm^−1 for both cytochrome c and DCIP. Briefly, a reaction mixture (1 ml) contained either cytochrome c (90 μM); DCIP (36 μM), HEPES buffer (50 mM) at pH 7.6, NaCl (250 mM), NADPH (100 μM), calmodulin (120 nM), and CaCl2 (200 μM); or other substances as indicated. The reaction was monitored for 60 s (at 23° C.) after the addition of eNOS. When inactivation of reductase activity was determined by the addition of EGTA (200-800 μM), chelator was added 1 min after initiation of the reaction and monitored for an additional 1 min. The reaction contained HEPES buffer (50 mM) at pH 7.6, CaM (120 nM), and CaCl2 (200 μM) and was initiated with NADPH (100 μM). No NaCl was added in experiments that examined EGTA inactivation of eNOS to mimic the conditions used in the hemoglobin capture experiments. […] Determination of the calcium EC50 for eNOS was performed as described above for the hemoglobin capture assay.

eNOS [2] = test: Hemoglobin capture assay of NO production by purified eNOS; assay type: biochemical, bovine; conditions: for Kcat (substrate Arginine, Hemoglobin capture): rate of NO production vs L-arginine, optimal conditions
Protocol: Assay for NOS Activity—NO production was measured by the hemoglobin capture assay as described (Kelm et al., 1988). Briefly, the reaction mixture contained eNOS (0.5-2.5 μg), oxyhemoglobin (8 μM), L-arginine (100 μM), BH4 (5 μM), CaCl2 (120 μM), calmodulin (120-200 nM), and NADPH (100 μM) in HEPES buffer (50 mM), pH 7.4. […] Under these conditions, free calcium was calculated using the WinMAXC program, version
NOS activity was monitored for linearity over 2 min at 401 nm, and NO production was calculated based on the change of absorbance using the extinction coefficient of 60 mM^−1 cm^−1. All reactions were carried out at 23° C., and each data point represents 3-8 observations. The extinction coefficient of 0.0033 μM^−1 cm^−1 at 276 nm was used for determination of calmodulin concentration. […] When the inactivation of eNOS was determined by the addition of EGTA (200-800 μM) to the reaction mixture, chelator was added 1 min after initiation of the reaction by NADPH. Identical conditions were used when NADPH-cytochrome c reductase activity was examined. These reactions contained CaM (120 nM) and CaCl2 (200 μM) in a 0.5-ml volume with eNOS (0.5 μg).

eNOS [3] = test: NOS activity (3H-L-arginine to 3H-L-citrulline) in COS cell lysates; assay type: biochemical, bovine; conditions: COS cells transfected with eNOS only, n=3
Source text: NOS activity assays: The conversion of ^3H-L-arginine to ^3H-L-citrulline was used to determine NOS activity in COS cell or endothelial cell lysates as previously described by Garcia-Cardena et al. (1998).

B1: S1179D: bovine eNOS with serine 1179 mutated to aspartic acid (protein)
chain: GNLKSVGQEPGPPCGLGLGLGLGLCGKQGPASPAPEPSRAPAPATPHAPDHSPAPNSPTLTRPPEGPKFPRVKNWELGSITYDTLCAQSQQDGPCTPRCCLGSLVLPRKLQTRPSPGPPPAEQLLSQARDFINQYYSSIKRSGSQAHEERLQEVEAEVASTGTYHLRESELVFGAKQAWRNAPRCVGRIQWGKLQVFDARDCSSAQEMFTYICNHIKYATNRGNLRSAITVFPQRAPGRGDFRIWNSQLVRYAGYRQQDGSVRGDPANVEITELCIQHGWTPGNGRFDVLPLLLQAPDEAPELFVLPPELVLEVPLEHPTLEWFAALGLRWYALPAVSNMLLEIGGLEFSAAPFSGWYMSTEIGTRNLCDPHRYNILEDVAVCMDLDTRTTSSLWKDKAAVEINLAVLHSFQLAKVTIVDHHAATVSFMKHLDNEQKARGGCPADWAWIVPPISGSLTPVFHQEMVNYILSPAFRYQPDPWKGSATKGAGITRKKTFKEVANAVKISASLMGTLMAKRVKATILYASETGRAQSYAQQLGRLFRKAFDPRVLCMDEYDVVSLEHEALVLVVTSTFGNGDPPENGESFAAALMEMSGPYNSSPRPEQHKSYKIRFNSVSCSDPLVSSWRRKRKESSNTDSAGALGTLRFCVFGLGSRAYPHFCAFARAVDTRLEELGGERLLQLGQGDELCGQEEAFRGWAKAAFQASCETFCVGEEAKAAAQDIFSPKRSWKRQRYRLSTQAEGLQLLPGLIHVHRRKMFQATVLSVENLQSSKSTRATILVRLDTAGQEGLQYQPGDHIGICPPNRPGLVEALLSRVEDPPPPTESVAVEQLEKGSPGGPPPSWVRDPRLPPCTLRQALTFFLDITSPPSPRLLRLLSTLAEEPSEQQELETLSQDPRRYEEWKWFRCPTLLEVLEQFPSVALPAPLLLTQLPLLQPRYYSVSSAPNAHPGEVHLTVAVLAYRTQDGLGPLHYGVCSTWLSQLKTGDPVPCFIRGAPSFRLPPDPYVPCILVGPGTGIAPFRGFWQERLHDIESKGLQPAPMTLVFGCRCSQLDHLYRDEVQDAQERGVFGRVLTAFSREPDSPKTYVQDILRTELAAEVHRVLCLERGHMFVCGDVTMATSVLQTVQRILATEGDMELDEAGDVIGVLRDQQRYHEDIFGLTLRTQEVTSRIRTQDFSLQERHLRGAVPWAFDPPGPDTPGP
eNOS [1]
  Kcat (CaM, L-Citrulline): 43 ± 2 min⁻¹
eNOS [1]; listed as S1179D eNOS
  Kcat (CaM, L-Citrulline): 43 min⁻¹
eNOS [1]; EC50 for CaM, NOS activity
  EC50: 7 nM
Cytochrome c
  kcat for CaM activation of cytochrome c reduction, S1179D compared with wild type: about 2 fold
Cytochrome c; CaM activation of cytochrome c reduction
  Kcat (CaM, Cytochrome c): 1140 min⁻¹ and 1140 ± 75 min⁻¹
Cytochrome c; EC50 for CaM, listed as S1179D eNOS, read-out: EC50 (CaM, Cytochrome c)
  EC50: 13 nM
Cytochrome c; EC50 for CaM, read-out: EC50 (CaM, Cytochrome c)
  EC50: 21 nM
Cytochrome c; EC50 for free calcium, read-out: EC50 (Ca2+, Cytochrome c, 100 mM KCl)
  EC50: 220 nM
Cytochrome c; FIG. 6B
  cytochrome c reduction activity compared with wild type eNOS: significant increase in activity
Cytochrome c; absence of CaM
  Km: 2000 nM
  basal cytochrome c reduction, S1179D compared with wild type eNOS: 4 fold
  cytochrome c reduction, first value of pair (with superoxide dismutase): 278 ± 9 min⁻¹
  cytochrome c reduction, second value of pair (without superoxide dismutase): 288 ± 7 min⁻¹
Cytochrome c; presence of CaM
  Km: 1900 nM
  cytochrome c reduction with superoxide dismutase: 1179 ± 43 min⁻¹
  cytochrome c reduction without superoxide dismutase: 1518 ± 19 min⁻¹
  relative decrease in cytochrome c activity in the presence of superoxide dismutase: 22%
Cytochrome c; NADPH dependence, absence of CaM
  Kcat − CaM (NADPH, Cytochrome c): 290 ± 9 min⁻¹
Cytochrome c; NADPH dependence, absence of CaM, listed as eNOS S1179D
  Kcat − CaM (NADPH, Cytochrome c): 290 min⁻¹
Cytochrome c; NADPH dependence, presence of CaM
  Kcat + CaM (NADPH, Cytochrome c): 840 min⁻¹ and 840 ± 59 min⁻¹
Cytochrome c; calcium activation
  Kcat (Ca2+, Cytochrome c, 100 mM KCl): 3798 ± 54 min⁻¹
Cytochrome c; calcium-dependent cytochrome c reduction
  maximal turnover rate, FIG. 8D: 3810 min⁻¹
Cytochrome c; calmodulin-dependent cytochrome c reduction
  maximal turnover rate, FIG. 8B: 1400 min1
Cytochrome c; highest concentration of EGTA
  reductase activity after calcium chelation with EGTA: residual reductase activity was found
Cytochrome c; presence of CaM, n=3-5
  CaM-stimulated cytochrome c reduction: 1272 ± 55 min⁻¹
Cytochrome c; with vs without CaM
  level of stimulation of cytochrome c reduction by CaM: 3 fold
eNOS [2]; 0-600 μM EGTA, 200 μM calcium
  sensitivity of NO production to the addition of EGTA: less sensitive to the addition of EGTA
eNOS [2]; 600 μM EGTA, 200 μM calcium
  NO production after calcium chelation with EGTA: residual activity was still detected
eNOS [2]; EC50 for free calcium, NO production, 250 nM CaM, read-out: EC50 (Ca2+, Hemoglobin capture, 100 mM KCl)
  EC50: 250 nM
eNOS [2]; FIG. 8C, p<0.05
  calcium dependence of NO production after normalization for maximal activity: slightly increased
eNOS [2]; Km for L-arginine, read-out: Km (substrate Arginine, Hemoglobin capture)
  Km: 2.5 µM
eNOS [2]; Km for NADPH, in presence of CaM, read-out: Km (NADPH, Hemoglobin capture)
  Km: 36 µM
eNOS [2]; NADPH dependence, in presence of CaM
  Kcat (NADPH, Hemoglobin capture): 53 ± 3 min⁻¹
eNOS [2]; NO production, presence of CaM
  increase in the Km for NADPH, S1179D compared with wild type eNOS: 4 fold
eNOS [2]; calcium activation, 250 nM CaM
  Kcat (Ca2+, Hemoglobin capture, 100 mM KCl): 100 ± 3 min⁻¹
eNOS [2]; calcium-dependent NO production
  maximal turnover rate, FIG. 8C: 100 min1
eNOS [2]; calmodulin-dependent hemoglobin capture
  maximal turnover rate, FIG. 8A: 43 min⁻¹
eNOS [2]
  Kcat (substrate Arginine, Hemoglobin capture): 84 ± 6 min⁻¹
eNOS [2]; listed as S1179D eNOS
  Kcat (substrate Arginine, Hemoglobin capture): 84 ± 6 min⁻¹
eNOS [3]
  NOS activity in lysates: 131.8±36.7 pmol L-citrulline generated/mg protein
